± gives the standard error. This sample holds only a part of the variants without activity.
B1: glmS ribozyme (parent)
chain: AUAAAAGCGCCAGAACUACAGAAAUGUAGUUGACGAGGAGGAGGUUUAUCGAAUUUUCGGCGGAUGCCUCCAAA

Key:
Details in all cases: with glucosamine-6-phosphate
glucosamine-6-phosphate [1] = variants of: B1; test: self-cleavage kobs at 640 uM GlcN6P; higher = faster cleavage; RNA array
How it was run: (§1)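 Sequenced MiSeq chips were the platform: E. coli RNA polymerase transcribed barcoded ribozyme variants on them in situ, and a hybridised Cy3 probe tracked these at 37 °C. After glucosamine-6-phosphate (40 μM to 10 mM) in HEPES/KCl/Mg(OAc)2 buffer was flowed in, tiles were imaged over ~14 h. Signals normalised to baseline and to non-cleaving reference variants were reduced to per-tile medians and fit to one- or two-exponential decays to obtain kobs. kcat and KM were derived through weighted Michaelis–Menten fits across concentrations.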

glucosamine-6-phosphate [2] = variants of: B1; test: self-cleavage kobs at 2500 uM GlcN6P; higher = faster cleavage; RNA array
How it was run: as §1

glucosamine-6-phosphate [3] = variants of: B1; test: self-cleavage kobs at 10000 uM GlcN6P; higher = faster cleavage; RNA array
How it was run: as §1

Variant	self-cleavage kobs at 640 uM GlcN6P (glucosamine-6-phosphate [1]) [s⁻¹]	self-cleavage kobs at 2500 uM GlcN6P (glucosamine-6-phosphate [2]) [s⁻¹]	self-cleavage kobs at 10000 uM GlcN6P (glucosamine-6-phosphate [3]) [s⁻¹]
AAAAAAGCGCCAGAACUACAGAAAUGUAGUUGACGAGGAGGAGUUUUAUCGAAUUUUCGGCGGAUGCCUCCAAA	0.000101 ± 1.5e-05	0.000228 ± 6.3e-05	
AUAAAAGCGCCAGAACUACAGAAAUGUAGUUGACGAGGAGGAUGUUCAUCGAAUUUUCGGCGUAUGCCUCCAAA	< 1e-05	< 1e-05	
AUAAAAGCGCCAGAACUACAGAAAUGUAGUUGACUAGUAGCAGGUUUAUCGAAUUUUCGGCGGAUGCCUCCAAA	< 1e-05	< 1e-05	
AUAAAAGCGCCAGAACUACAGAAAUGUAGUUGGUGAGGAGGGGGUUUAUCUAAUUUUUCGCGGAUGCCUCCAAA	< 1e-05	< 1e-05	
AUAAAAGCGCCAGAACUACAGAAAUGUAGUUGACGAGGAGGAGGUUCACCGAAUUUUCGGCAAAUGCCUCCAAA	< 1e-05		
AUAAAAGCGCGAGAACUACAGAAAUGUAGUUGACGAGGAGGAGGUUUAUCGAAUUUUCCGCGGAUGGCUCCAAA	0.000111 ± 4e-05	0.00023 ± 6.2e-05	
AUAAAAGCGCCAGAACUACAGAAAUGUAGUUGACGAGUAGGAGGUUUAUCGAAUUUUCGGCGGAUGCCACCAAA	0.000186 ± 9e-05		
AUAAAAGUGCCAGAACUACAGAAAUGUAGUUGACGAGGAUGAGGUUUAUCGAAUUUUCUGCGGAUGCUUCCAAA	< 1e-05		
AUAAAGGCGCCAGAACUACAGAAAUGUAGUUGACGAGGAUGAGGUUUAUCGAAUUUUCGGCGGAUGACUCCAAA	< 1e-05		
AUAAAAGCGCCAGAACUACAGAAAUGUAGUUGUCGAGGAGGAGGUCUAUCGAAUUUUCGGCGAAUGCCUCCAAA	< 1e-05	< 1e-05	
AUAAAAGCGCCAGAAAUACAGAAAUGUAGUUGACGAGGAGGAGGUUUAUCGAAUUUUCGGCGUAUGCCACCAAA	0.000106 ± 3.1e-05		
AUAAAAGCUCCAUAACUACAGAAAUGUAUUUGACGACGAGGAGGUUUAUCGAAUUUUCGGCGGAUGCCUCCAAA	< 1e-05	< 1e-05	
AUAAAAGCGCCAGAACUACAGAAAUGUAGUUGACGAGGAGGAGGUUAUUCGAAUUUUCGGCGGAUGCCUUCAAA	0.000162 ± 5.1e-05	0.000141 ± 3.3e-05	0.000573 ± 0.00021
AUAAAAGCGACAGAACUACAGAAAUGUAGUUGACCAGGAGGAGGUUUAUCGAAUCUUCGGCGGAUGCCUCCAAA	< 1e-05	< 1e-05	
AUAAAAGCGCAAGAACUACAGAAAUGUAGUUUACGAGGCGGAGGUUUAUCGAAAUUUCGGCGGAUGGGUCCAAA	0.00137 ± 0.00067		
AUAAAAGCGCCAGAACUACAGAAAUGUAGUGGACGAGGAGGAGGUUUAUCGAAUUUUCGGCGGAAGCCUCCAAA	0.000295 ± 0.00011		0.00166 ± 0.00049
AUAAAAGCGCCAGAACUACAGAAAUGUAGUUGACGAGGAGGCUGUUUAUCGAAUUUACGGCGGAUGCCUCCAAA	< 1e-05	< 1e-05	< 1e-05
AUAAAGGCGCCAGAAGUACAGAAAUGUAGUUGACGAGGAGGAGGUUUAUCGAAUUUCCGGCGGAUGCCUCCAAA	< 1e-05		
AUAAAAGCGCCAGAACUACAGAAAUGUAGUUGACGAGGAGGAGGUUUAUCGAAUUUCCGGCGGAUGUAUCCAAA	8.67e-05 ± 4e-05		
AUAAAAGGGCCAGAACUACAGAAAUGUAGUUGACGAGGAGGUGGUUUAUCGAAUUUUCGGCGGAUGCCUCCAAA	< 1e-05		< 1e-05
AUAAAAGCGUCAGAACUACAGAAAUGUAGUUGUCGAGGAGGAGGUUUAUCGAAUUCUCGGCGGAUGCAUCCAAA	< 1e-05		
AUAAAAGCGCCAUAACUACAGAAAUGUAGUUGACGAGGAAGAGGUUUAUCGAAUUUUCGGCGGAUGCCUCCAAA	5.97e-05 ± 1.3e-05	6e-05 ± 1.2e-05	0.000183 ± 3.6e-05

Source: the supplement of paper PMC7125110
